Consider one molecule from KR20120084755A (dated 2012).

Assay [1] concerns the target T1, RSV 긴 균주(Long strain)로부터의 HIS 태그 포함 재조합 F 단백질 (Respiratory Syncytial Virus (RSV), Long …, UniProt P12568 26-524).
T1 construct: not shown: poly-HIS tag
Description: direct ELISA, purified HIS-tagged F on Ni-NTA HisSorp plates (Fig. 3b right). Background: ELISA stands for enzyme-linked immunosorbent assay.

Assay [2] addresses RSV A2 바이러스의 F 단백질 (Respiratory Syncytial Virus (RSV), …, UniProt P03420 26-574). As to the kind of experiment: cell-based or functional assay.

RSV A2 바이러스의 F 단백질, sequence (P03420 26-574): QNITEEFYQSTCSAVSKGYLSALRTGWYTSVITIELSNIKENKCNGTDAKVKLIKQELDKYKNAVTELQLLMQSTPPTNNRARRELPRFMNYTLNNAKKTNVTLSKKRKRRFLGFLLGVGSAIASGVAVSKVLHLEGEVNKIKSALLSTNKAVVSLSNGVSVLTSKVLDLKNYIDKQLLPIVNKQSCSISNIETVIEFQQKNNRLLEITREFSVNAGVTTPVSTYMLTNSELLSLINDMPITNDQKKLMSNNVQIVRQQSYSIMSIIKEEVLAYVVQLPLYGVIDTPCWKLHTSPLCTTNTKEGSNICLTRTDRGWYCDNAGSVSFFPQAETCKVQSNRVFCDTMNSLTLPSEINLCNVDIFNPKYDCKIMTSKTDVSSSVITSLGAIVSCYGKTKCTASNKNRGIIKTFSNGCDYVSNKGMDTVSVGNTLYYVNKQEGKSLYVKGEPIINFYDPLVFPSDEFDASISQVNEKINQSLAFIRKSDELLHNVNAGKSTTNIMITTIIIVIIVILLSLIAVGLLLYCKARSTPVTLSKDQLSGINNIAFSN
T1 sequence (P12568 26-524): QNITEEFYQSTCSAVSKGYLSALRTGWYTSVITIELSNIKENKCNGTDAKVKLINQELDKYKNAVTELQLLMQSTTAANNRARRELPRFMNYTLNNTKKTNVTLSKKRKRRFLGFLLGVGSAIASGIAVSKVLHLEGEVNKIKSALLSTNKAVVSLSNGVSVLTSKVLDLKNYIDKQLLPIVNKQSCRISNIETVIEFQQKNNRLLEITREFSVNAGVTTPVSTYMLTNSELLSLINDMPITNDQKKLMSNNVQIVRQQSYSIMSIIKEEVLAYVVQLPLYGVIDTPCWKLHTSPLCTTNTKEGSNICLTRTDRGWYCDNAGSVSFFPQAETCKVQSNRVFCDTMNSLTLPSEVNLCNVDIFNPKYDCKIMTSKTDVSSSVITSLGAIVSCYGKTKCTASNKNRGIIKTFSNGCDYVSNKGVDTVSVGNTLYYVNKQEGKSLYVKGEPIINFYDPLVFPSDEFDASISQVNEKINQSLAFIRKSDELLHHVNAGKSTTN

B1: AM22 (antibody, V domains shown)
VH: QVQLVQSGAEVKKPGATVKVSCKISGHTLIKLSIHWVRQAPGKGLEWMGGYEGEVDEIFYAQKFQHRLTVIADTATDTVYMELGRLTSDDTAVYFCGTLGVTVTEAGLGIDDYWGQGTLVTVSS
VL: EIVLTQSPGTLSLSPGERATLSCRASQIVSRNHLAWYQQKPGQAPRLLIFGASSRATGIPVRFSGSGSGTDFTLTINGLAPEDFAVYYCLSSDSSIFTFGPGTKVDFK
notes: also called 재조합 AM22 mAb; AM22 항체
As to B1, in assay [1], the binding result was “no binding”. Moreover, the “IC50, RSV A2 neutralisation on HEp2 cells (standard TCID50 culture assay)” value in assay [2] is 1.15 ng/㎖.
